Patent US20140213531A1 (POLYPHOR, published 2014)
Bridges are numbered along the chain shown (N, C = ends). [ ]: non-standard residue; d: D form. Gly(octyl) = CCCCCCCC[C@H](N)C(=O)O; Pro(4NHCOPhe) = not defined here; Cha = N[C@@H](CC1CCCCC1)C(=O)O

T1: CathepsinG, from human neutrophils (human, UniProt P08311 21-244)
T1 construct: purified natural enzyme, bought
T1 sequence (looked up): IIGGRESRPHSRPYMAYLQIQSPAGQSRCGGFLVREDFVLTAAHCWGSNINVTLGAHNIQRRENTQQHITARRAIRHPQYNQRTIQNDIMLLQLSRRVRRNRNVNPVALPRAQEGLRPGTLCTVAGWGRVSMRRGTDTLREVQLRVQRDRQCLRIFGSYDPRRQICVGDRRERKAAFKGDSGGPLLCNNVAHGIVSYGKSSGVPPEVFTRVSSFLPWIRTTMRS

T2: Chymase, from human skin (human, UniProt P23946 22-247)
T2 construct: purified natural enzyme, bought
T2 sequence (looked up): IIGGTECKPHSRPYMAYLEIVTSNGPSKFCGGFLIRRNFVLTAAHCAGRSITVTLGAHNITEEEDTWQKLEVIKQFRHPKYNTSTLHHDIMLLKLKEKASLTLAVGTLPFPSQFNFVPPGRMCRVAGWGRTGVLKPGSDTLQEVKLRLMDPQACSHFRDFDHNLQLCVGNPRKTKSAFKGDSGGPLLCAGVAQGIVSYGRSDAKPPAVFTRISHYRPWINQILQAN


Tests used:
Experiment in all cases: enzyme inhibition, pNA substrate
[1] = molecular target: T1, CathepsinG, from human neutrophils
[2] = molecular target: T3, Tryptase, from human lung (human, UniProt Q15661 31-275, limits assumed)
T3 construct: purified natural enzyme, bought

[3] = molecular target: T4, Urokinase from human urine (human, UniProt P00749 21-431, limits assumed)
T4 construct: purified natural enzyme, bought

[4] = molecular target: Thrombin, from Human Plasma, high activity (human, UniProt P00734 328-622)
[5] = molecular target: T5, Chymotrypsin, from human pancreas (human, UniProt P17538 19-263)
T5 construct: purified natural enzyme, bought

[6] = molecular target: T6, Trypsin, Iodination grade, from human pancreas (human, UniProt P07477 24-247)
T6 construct: purified natural enzyme, bought

Chymase, from human skin = molecular target: T2, Chymase, from human skin
[7] = molecular target: T7, Coagulation Factor Xa, from uman plasma (human, UniProt P00742 41-179; P00742 235-488, limits assumed)
T7 construct: purified natural enzyme, bought; also called FXa
T7 sequence (P00742 41-179 limits assumed, chain 1 of 2): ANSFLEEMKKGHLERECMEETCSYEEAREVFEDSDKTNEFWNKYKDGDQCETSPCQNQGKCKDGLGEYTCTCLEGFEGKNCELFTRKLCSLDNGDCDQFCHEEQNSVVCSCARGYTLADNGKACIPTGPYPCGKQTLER
T7 sequence (P00742 235-488 limits assumed, chain 2 of 2): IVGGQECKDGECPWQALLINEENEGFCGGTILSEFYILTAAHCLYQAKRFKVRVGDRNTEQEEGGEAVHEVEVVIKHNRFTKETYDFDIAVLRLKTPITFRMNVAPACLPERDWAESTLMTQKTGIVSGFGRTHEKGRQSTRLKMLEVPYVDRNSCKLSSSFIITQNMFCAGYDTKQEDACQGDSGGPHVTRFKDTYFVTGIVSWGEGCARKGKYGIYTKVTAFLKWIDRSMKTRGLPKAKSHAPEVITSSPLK

T3 sequence (Q15661 31-275 limits assumed): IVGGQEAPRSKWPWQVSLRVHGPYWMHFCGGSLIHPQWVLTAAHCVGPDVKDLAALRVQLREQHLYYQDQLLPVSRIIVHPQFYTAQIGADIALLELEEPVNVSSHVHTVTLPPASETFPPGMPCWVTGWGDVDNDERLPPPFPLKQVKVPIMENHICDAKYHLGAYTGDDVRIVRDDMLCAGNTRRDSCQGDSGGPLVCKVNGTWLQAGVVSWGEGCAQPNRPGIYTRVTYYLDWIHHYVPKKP
T5 sequence (P17538 19-263): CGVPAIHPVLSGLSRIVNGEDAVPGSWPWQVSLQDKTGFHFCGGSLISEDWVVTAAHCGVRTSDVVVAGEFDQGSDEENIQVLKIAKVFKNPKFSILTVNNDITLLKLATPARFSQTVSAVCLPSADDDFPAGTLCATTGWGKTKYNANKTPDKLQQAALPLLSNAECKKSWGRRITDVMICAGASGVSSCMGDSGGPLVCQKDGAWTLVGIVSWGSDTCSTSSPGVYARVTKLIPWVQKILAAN

Binder	% inhibition at 100 µM [1] [%]	% inhibition at 100 µM [2] [%]	% inhibition at 100 µM [3] [%]	% inhibition at 100 µM [4] [%]	% inhibition at 100 µM [5] [%]	% inhibition at 100 µM [6] [%]	% inhibition at 100 µM (Chymase, from human skin) [%]	% inhibition at 100 µM [7] [%]
XCTASXPPQCQ (HELM PEPTIDE1{[CCCCCCCC[C@H](N[*:1])C(=O)[*:2]].C.T.A.S.[CCCCCCCC[C@H](N[*:1])C(=O)[*:2]].P.P.Q.C.Q.[dP].P}$PEPTIDE1,PEPTIDE1,2:R3-10:R3|PEPTIDE1,PEPTIDE1,1:R1-13:R2$$$V2.0; SMILES CCCCCCCC[C@@H]1NC(=O)[C@@H]2CCCN2C(=O)[C@H]2CCCN2C(=O)[C@H](CCC(N)=O)NC(=O)[C@@H]2CSSC[C@H](NC1=O)C(=O)N[C@@H]([C@@H](C)O)C(=O)N[C@@H](C)C(=O)N[C@@H](CO)C(=O)N[C@@H](CCCCCCCC)C(=O)N1CCC[C@H]1C(=O)N1CCC[C@H]1C(=O)N[C@@H](CCC(N)=O)C(=O)N2, also called Ex. 148) [Example 148]	52	30	12	32	91	–	–	–
XCTASXPPQCY (HELM PEPTIDE1{[Nle].C.T.A.S.[Cha].P.P.Q.C.Y.[dP].P}$PEPTIDE1,PEPTIDE1,2:R3-10:R3|PEPTIDE1,PEPTIDE1,1:R1-13:R2$$$V2.0; SMILES CCCC[C@@H]1NC(=O)[C@@H]2CCCN2C(=O)[C@H]2CCCN2C(=O)[C@H](Cc2ccc(O)cc2)NC(=O)[C@@H]2CSSC[C@H](NC1=O)C(=O)N[C@@H]([C@@H](C)O)C(=O)N[C@@H](C)C(=O)N[C@@H](CO)C(=O)N[C@@H](CC1CCCCC1)C(=O)N1CCC[C@H]1C(=O)N1CCC[C@H]1C(=O)N[C@@H](CCC(N)=O)C(=O)N2, also called Ex. 141) [Example 141]	63.4	44.5	–	0	72.9	0	0	15.3
XETASIPPQKY (HELM PEPTIDE1{[Nle].E.T.A.S.I.P.P.Q.K.Y.[dP].P}$PEPTIDE1,PEPTIDE1,1:R1-13:R2$$$V2.0; SMILES CCCC[C@@H]1NC(=O)[C@@H]2CCCN2C(=O)[C@H]2CCCN2C(=O)[C@H](Cc2ccc(O)cc2)NC(=O)[C@H](CCCCN)NC(=O)[C@H](CCC(N)=O)NC(=O)[C@@H]2CCCN2C(=O)[C@@H]2CCCN2C(=O)[C@H]([C@@H](C)CC)NC(=O)[C@H](CO)NC(=O)[C@H](C)NC(=O)[C@H]([C@@H](C)O)NC(=O)[C@H](CCC(=O)O)NC1=O) [Example 104]	53.5	0	0	–	–	0	0	–
XCTASIPPQCY (HELM PEPTIDE1{[Nle].C.T.A.S.I.P.P.Q.C.Y.[dK].E}$PEPTIDE1,PEPTIDE1,2:R3-10:R3|PEPTIDE1,PEPTIDE1,1:R1-13:R2$$$V2.0; SMILES CCCC[C@@H]1NC(=O)[C@H](CCC(=O)O)NC(=O)[C@@H](CCCCN)NC(=O)[C@H](Cc2ccc(O)cc2)NC(=O)[C@@H]2CSSC[C@H](NC1=O)C(=O)N[C@@H]([C@@H](C)O)C(=O)N[C@@H](C)C(=O)N[C@@H](CO)C(=O)N[C@@H]([C@@H](C)CC)C(=O)N1CCC[C@H]1C(=O)N1CCC[C@H]1C(=O)N[C@@H](CCC(N)=O)C(=O)N2) [Example 127]	64	0	–	–	47.2	0	–	13.3
XCTASIPPQCQ (HELM PEPTIDE1{[O=C([C@H](CCc1ccccc1)N[*:1])[*:2]].C.T.A.S.I.P.P.Q.C.Q.[dP].P}$PEPTIDE1,PEPTIDE1,2:R3-10:R3|PEPTIDE1,PEPTIDE1,1:R1-13:R2$$$V2.0; SMILES CC[C@H](C)[C@@H]1NC(=O)[C@H](CO)NC(=O)[C@H](C)NC(=O)[C@H]([C@@H](C)O)NC(=O)[C@@H]2CSSC[C@H](NC(=O)[C@H](CCC(N)=O)NC(=O)[C@@H]3CCCN3C(=O)[C@@H]3CCCN3C1=O)C(=O)N[C@@H](CCC(N)=O)C(=O)N1CCC[C@@H]1C(=O)N1CCC[C@H]1C(=O)N[C@@H](CCc1ccccc1)C(=O)N2, also called Ex. 143) [Example 143]	28	18	–	12	91	12	0	0
XCTASXPPQCQ (HELM PEPTIDE1{[O=C([C@H](CCc1ccccc1)N[*:1])[*:2]].C.T.A.S.[CCCCCCCC[C@H](N[*:1])C(=O)[*:2]].P.P.Q.C.Q.[dP].P}$PEPTIDE1,PEPTIDE1,2:R3-10:R3|PEPTIDE1,PEPTIDE1,1:R1-13:R2$$$V2.0; SMILES CCCCCCCC[C@@H]1NC(=O)[C@H](CO)NC(=O)[C@H](C)NC(=O)[C@H]([C@@H](C)O)NC(=O)[C@@H]2CSSC[C@H](NC(=O)[C@H](CCC(N)=O)NC(=O)[C@@H]3CCCN3C(=O)[C@@H]3CCCN3C1=O)C(=O)N[C@@H](CCC(N)=O)C(=O)N1CCC[C@@H]1C(=O)N1CCC[C@H]1C(=O)N[C@@H](CCc1ccccc1)C(=O)N2) [Example 153]	56	–	16	16	84	–	0	11

Second part, the binder after the results:

% inhibition at 100 µM [1] [%]	% inhibition at 100 µM [2] [%]	% inhibition at 100 µM [3] [%]	% inhibition at 100 µM [4] [%]	% inhibition at 100 µM [5] [%]	% inhibition at 100 µM [6] [%]	% inhibition at 100 µM (Chymase, from human skin) [%]	% inhibition at 100 µM [7] [%]	Binder
55	13	10	–	93	–	0	–	XCTASXPPQCQ (HELM PEPTIDE1{[O=C([C@H](CCc1ccccc1)N[*:1])[*:2]].C.T.A.S.[Cha].P.P.Q.C.Q.[dP].P}$PEPTIDE1,PEPTIDE1,2:R3-10:R3|PEPTIDE1,PEPTIDE1,1:R1-13:R2$$$V2.0; SMILES C[C@@H]1NC(=O)[C@H]([C@@H](C)O)NC(=O)[C@@H]2CSSC[C@H](NC(=O)[C@H](CCC(N)=O)NC(=O)[C@@H]3CCCN3C(=O)[C@@H]3CCCN3C(=O)[C@H](CC3CCCCC3)NC(=O)[C@H](CO)NC1=O)C(=O)N[C@@H](CCC(N)=O)C(=O)N1CCC[C@@H]1C(=O)N1CCC[C@H]1C(=O)N[C@@H](CCc1ccccc1)C(=O)N2) [Example 158]
54	15	12	17	86	–	–	–	XCTASIPPQCY (HELM PEPTIDE1{[CCCCCCCC[C@H](N[*:1])C(=O)[*:2]].C.T.A.S.I.P.P.Q.C.Y.[dP].Q}$PEPTIDE1,PEPTIDE1,2:R3-10:R3|PEPTIDE1,PEPTIDE1,1:R1-13:R2$$$V2.0; SMILES CCCCCCCC[C@@H]1NC(=O)[C@H](CCC(N)=O)NC(=O)[C@H]2CCCN2C(=O)[C@H](Cc2ccc(O)cc2)NC(=O)[C@@H]2CSSC[C@H](NC1=O)C(=O)N[C@@H]([C@@H](C)O)C(=O)N[C@@H](C)C(=O)N[C@@H](CO)C(=O)N[C@@H]([C@@H](C)CC)C(=O)N1CCC[C@H]1C(=O)N1CCC[C@H]1C(=O)N[C@@H](CCC(N)=O)C(=O)N2, also called Ex. 177) [Example 177]
55	30	14	23	94	–	–	–	cyclo([Gly(octyl)]CTAS[Cha]P[Pro(4NHCOPhe)]QCQ[dP]P) (disulfide 2-10; not fully specified; reading uncertain, also called Ex. 160) [Example 160]
52	30	12	19	83	18	–	–	XCTASXPPQCF (HELM PEPTIDE1{[O=C([C@H](CCc1ccccc1)N[*:1])[*:2]].C.T.A.S.[Cha].P.P.Q.C.F.[dP].P}$PEPTIDE1,PEPTIDE1,2:R3-10:R3|PEPTIDE1,PEPTIDE1,1:R1-13:R2$$$V2.0; SMILES C[C@@H]1NC(=O)[C@H]([C@@H](C)O)NC(=O)[C@@H]2CSSC[C@H](NC(=O)[C@H](CCC(N)=O)NC(=O)[C@@H]3CCCN3C(=O)[C@@H]3CCCN3C(=O)[C@H](CC3CCCCC3)NC(=O)[C@H](CO)NC1=O)C(=O)N[C@@H](Cc1ccccc1)C(=O)N1CCC[C@@H]1C(=O)N1CCC[C@H]1C(=O)N[C@@H](CCc1ccccc1)C(=O)N2, also called Ex. 155) [Example 155]
